US6150139A, “Bacterocide compositions and their preparation from micrococcus varians” (priority 1995, dated 2000)

Key:
[1] = test system: Lactobacillus helveticus (N 2); assay: inactivation by enzymes, agar well test; format: physicochemical; conditions: for Inhibition halo diameter after enzyme treatment: 60 min
[2] = test system: Lactobacillus bulgaricus (YL 5); assay: inactivation by enzymes, agar well test; format: physicochemical; conditions: 60 min, halo after treatment
[3] = test system: Lactobacillus helveticus (N 2); assay: resistance to pH, agar well test; format: physicochemical; conditions: readjusted to pH 6-7
[4] = test system: Lactobacillus helveticus (N 2); assay: resistance to heat, agar well test; format: physicochemical; conditions: for Inhibition halos (mm): 100 °C, pH 7
[5] = test system: Lactobacillus helveticus (N 2); assay: resistance to heat and to pH, agar well test; format: physicochemical; conditions: for Inhibition halo (mm): 115 °C
[6] = test system: Gram-negative bacteria; assay: agar well test, inhibition spectrum, Gram-negative bacteria; format: cell-based; conditions: results of Table V
Description: The inhibition spectrum of the supernatant is thus determined.

[7] = test system: strain of Lactococcus lactis which produces lacticin 481; assay: inhibition spectrum test on the lacticin 481 producer; format: cell-based
Description: When the strain of Lactococcus lactis which produces lacticin 481 is inoculated in the presence of a […] extract, as previously described in the inhibition spectrum test, the growth of the said strain is seen to be inhibited. The strain of Lactococcus lactis which produces lacticin 481 is immune to its own bacteriocin, lacticin 481, but is not immune to the […] produced by either of the two Micrococcus varians strains according to the present invention.

[8] = Catalase (SIGMA C-10) 5 mg/ml, incubation 30 °C
[9] = Ficin (SIGMA F-3266) 5 mg/ml, incubation 37 °C
[10] = Pronase E (SIGMA P-8038) 5 mg/ml, incubation 37 °C
[11] = Proteinase K (MERCK 1000 144) 5 mg/ml, incubation 37 °C

## variacin: bacteriocin from Micrococcus varians strains CNCM I-1586 and CNCM I-1587, amino acid sequence SEQ ID NO:1 (GSGVIPTISHECHMNSFQFVFTCCS)
[1]; [8]
  Inhibition halo diameter after enzyme treatment: 27 mm
[1]; [9]
  Inhibition halo diameter after enzyme treatment: 0 mm
[1]; [10]
  Inhibition halo diameter after enzyme treatment: 0 mm
[1]; [11]
  Inhibition halo diameter after enzyme treatment: 0 mm
[1]; all proteolytic enzymes of Tables I and II, indicator strains N 2 and YL 5
  effect of proteolytic enzymes on bactericidal activity: suppress the bactericidal activity
[1]; two indicator strains N 2 and YL 5
  influence of catalase on bactericidal activity: not found to exert any influence
[2]; [8]
  Inactivation (mm): 27 mm
[2]; [9]
  Inactivation (mm): 0 mm
[2]; [10]
  Inactivation (mm): 0 mm
[2]; [11]
  Inactivation (mm): 0 mm
[3]; pH 2, 37 °C for 60 min
  Inhibition halos: 27 mm
[3]; pH 4, 37 °C for 60 min
  Inhibition halos: 27 mm
[3]; pH 6, 37 °C for 60 min
  Inhibition halos: 27 mm
[3]; pH 8, 37 °C for 60 min
  Inhibition halos: 27 mm
[3]; pH 10, 37 °C for 60 min
  Inhibition halos: 27 mm
[4]; incubation time 15 min
  Inhibition halos (mm): 27 mm
[4]; incubation time 30 min
  Inhibition halos (mm): 27 mm
[4]; incubation time 60 min
  Inhibition halos (mm): 27 mm
[4]; 60 min incubation at 100 °C
  bactericidal activity after heating: not compromised
[5]; pH 4, 20 min
  Inhibition halo (mm): 27 mm
[5]; pH 4 or 7, combined with an elevated temperature
  bactericidal activity after pH combined with heat: not compromised
[5]; pH 7, 20 min
  Inhibition halo (mm): 27 mm
[6]
  inhibitory effect on the growth of Gram-negative bacteria: does not exert any inhibitory effect

## lacticin 481
[7]
  growth of the lacticin 481-producing strain in presence of bacteriocin: immune
